# Results taken from US20160030595A1 (THOMAS JEFFERSON UNIVERSITY, published 2016).
# B1: MS7 mouse monoclonal antibody (IgG1k) (antibody, V domains shown)
# VH: EVMLVESGGGLVKPGGSLKLSCAASGFTFSTYAMSWVRQTPEKRLEWVATITSGGSYTYYPDSVKGRFTISRDNAKNILYLQMSSLRSEDTAMYYCTRLRQIGLRGFSDYWGQGTTLTVSS
# VL: DILMTQSPSSMYASLGERVTITCKASHDIKSYLSWYQQKPWRSPKTLIYYTTALADGVPSRFSGSGSGQDYSLTISSLESDDTATYYCLQHGESPYTFGGGTKLEIK
# B2: MS20 mouse monoclonal antibody (IgG2ak) (antibody, V domains shown)
# VH: EVQLEESGPELVKPGASVKMSCKASGYTFTDYVISWVKQRTGQGLEWIGVTYPGSGNTYYGERFKGKATLTVDKMSNTAYMQLSSLTSEDSAVYFCTRNYGSFYALDYWGQGTSVTVSS
# VL: DILMTQSPATLSVTPGDRVSLSCRASQSIRDYLHWYQHRSHESPRLLIKYASQSISGIPSRFSGSGSGSDFTLTINSVEPEDVGVYYCQNGHSFPTFGGGTKLEIK
# Biological target: T1, human guanylyl cyclase C (GCC) (human, UniProt P25092 24-430, limits assumed)
# T1 construct: also called human GCC; STAR
# T1 sequence (P25092 24-430 limits assumed): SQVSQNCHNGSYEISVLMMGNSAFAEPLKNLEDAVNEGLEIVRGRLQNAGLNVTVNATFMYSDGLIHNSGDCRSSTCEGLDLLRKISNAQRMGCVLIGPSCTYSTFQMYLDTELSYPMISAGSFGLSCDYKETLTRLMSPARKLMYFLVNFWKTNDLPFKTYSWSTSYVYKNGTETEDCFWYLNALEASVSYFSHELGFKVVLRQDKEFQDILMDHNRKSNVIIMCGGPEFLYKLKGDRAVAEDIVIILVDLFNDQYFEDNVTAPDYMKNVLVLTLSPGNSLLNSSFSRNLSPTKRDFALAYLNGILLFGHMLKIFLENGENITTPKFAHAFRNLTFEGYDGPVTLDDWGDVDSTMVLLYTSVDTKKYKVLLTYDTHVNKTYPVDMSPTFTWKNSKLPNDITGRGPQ
# Assay: not described
row,Binder,binding result
1,B1,binds
2,B2,binds
